# Measurements reported in PMC11784651 (mAbs, 2025).
# Target: human CD38 extracellular domain (hsCD38 ECD) used for crystallization (Homo sapiens, stabilised)
# Assay: crystal structure
row,binding result,Binder
1,binds,"anti-CD38 B6-D9 Fab (Fab, V domains shown) VH: QVQLVQSGAEVKKPGSSVKVSCKASGGFFSHYIINWVRQAPGQGLEWMGRVIPVIDDAYYAQKFQGRVTITADESTSTAYMELSSLRSEDTAVYYCARSRGYYGSFYFDIWGQGTLVTVSS VL: not shown"
2,binds,"anti-CD38 E2-RecA Fab (Fab, V domains shown) VH: QVQLVQSGAEVKKPGSSVKVSCKASGLPDATYAIGWVRQAPGQGLEWMGRIIPRLDAEHYAQKFQGRVTITADESTSTAYMELSSLRSEDTAVYYCARGLGYYLYSSYYFDIWGQGTLVTVSS VL: not shown"
